In the nanobody polyreactivity screen of Harvey et al. (2022):

Experiment: yeast display, Sf9 membrane polyspecificity reagent, FACS + sequencing; frameworks hold sequencing errors
Summary of the method: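 Polyreactivity labels are assigned by the sorting gate from which each nanobody was recovered. The gates were low and high (top ~1%), set on anti-HA fluorescence for expression and streptavidin fluorescence for reagent binding. Before sorting, galactose-induced (36–48 hours) yeast display cells were stained for 1 hour at 4 °C with 10% biotinylated, detergent-solubilized Sf9 membrane reagent.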

Row | Sequence | polyreactivity (PSR sort gate)
1 | QVQLVESGGGLVQAGGILRLSCASSGRIFGVNAMGWYRQATGKERELVATISSGGSTYYADSVKGRFTISRDNAKNTVYLQLNSLKPEDTAVYYCAADTRRYYLARYRTDYWGQGTQVTVSS | high polyreactivity
2 | QVQLVESGGGLVQAGGSLRLSCAASGSILDSNAMGWYRQAPGKERELVAAITSGGSTYYADSVKGRFTISRDNAKNTVYLQMNSLKPEETAVYYCAAAYLGYGAVQPSYEGGYWGQGTQVTVSS | low polyreactivity
3 | QVQLVESVGGLVQAGGSLRLSCAASGRIFGGYALGWYRQAPGKERELVAAITSSGSTNYADSVKGRFTISRDNAMNTVYLQMNSLKQEDTAVYYCANDFKTVYYWWGMDYWGQGTQVTVSS | low polyreactivity
4 | QVQLVESGGGLVQAGGSLRLSCAASGSTFTGNAMGWYRQAPGKERELVAAISRSGGSTFYADSVKGRFTISRDNAKYTVYLQMNSLKAEDTAVYYCATRYVVDMDYWGQGTQVTVSW | high polyreactivity
5 | QVQLVESGGGLVQAGGSLRLSCAASGSIFSPNDMGWYRQAPGKERELVAAITSAGSTYYADSVKGRFTISRDNAKNTVYLQMNSLKPEDTAVYYCAATYISVTDYAYFPLWYGYWGQGTQVTVSS | low polyreactivity
6 | QVQLVESGGGLVQAGGSLRLSCAASGSTFLYYDMGWYRQAPGKERELVADITWSGSGTYYADSVKGRFTISRDNAKNTVYLQMNSLKPEDTAVYYCAADDTWRGDQYFYSYDYWGQGTQVTVSS | low polyreactivity
7 | QVQLVESGGGLVQAGGSLRLSCAASGRIFAGYVMGWYRQAPGKERELVAAISGSGASTYYADSVKGRFTISRDNAKNTVFLQMNSLKPEDTAVYYCAADKPGIVSRFDYWGQGTQVTVSS | low polyreactivity
8 | QVHLEESGGGLVQAGGSLRLTCAASGFTFQLYAMGWYRQPPGKERELVAAINYRGSSTYYADSVKGRFTISRDNAKNTVYLQMNSLKPEDTAVYYCNAAQYYERFNHWGQGTQVTVSS | high polyreactivity
9 | QVQLVESGGGLVQAGGSLRLSCAASGFTIDDNAMGWSRQPPGKERELVAAISWSGGSTYYADSVKGRFTISRDNAKNTVYLQMNSLKPEDTAVYYCAIDVSQPKFDYWGQGTQVTVSS | low polyreactivity
10 | QVQLVESGGGLVQAGGSLRLSCAASGSIFGPYMGWYRQAPGKERELVASVVSTYYADSVKGRFTISRDNAKNTVYLQMNSLKPEDTAVYYCNTQDTKNKSSVFVPSDYWGQGTQVTVSS | low polyreactivity
11 | QVQLVESGGGLVQAGGILRLSCASSGITFLTYTMGWYRQAPAKERELVAAISRSGGRTYYADSVKGRFTISRDNEKITVYLLMNSLKPEDTAVYYCDAVSATQDFDYWGQGTQETVSS | high polyreactivity
12 | QVQLVESGGGLVQAGGSLRLSCAASGSIFTYYAMGWYRQAPGKEMELVARIDWNGGSTRYADSVKGRFTISRDNAKNTVYLQMNSLKPEYTAVYYCAADWDYAPYFDPDLLDYWGQGTQVTVSS | low polyreactivity
13 | QVQLVESGGGLVQAGGSLLLSCAPSGSTIPSYAMGWYRQSPGKERELVASITYSDGTTRYADSVKGRFTISRDNAKNTVYLQMNSLKPEDTAVYYCNAVYYREGMDYWGQGTQVTVSS | low polyreactivity
14 | QVQLVESGGGLVQAGGSLRLSCAASGSILSYYTMGWYRQAPGKERELVAAISAGGGSTYYADSVKGRFTISRDNAKNTVYLQMNSLKPEDTAVYYCASGFSRRWQYNYWGQGTQVTVSS | high polyreactivity
15 | QVQHVESGGGLVQAGGSLRLSCAASGRTFYRYAMGWYRQAPGKERELVAAISGSGTSTSYADSVKGRFTISRDNAKNSVYLQMNSLKPEDTAVYYCAATYYVYYYSRYYFWGQGTQVTVSS | high polyreactivity
16 | QVQLVESGGGLVQAGGSLRLSCAASGSIFASYAMGWYRQAPGKERELVAAISRSGGSTYYADSVKGRFTISRDNAKNTVYLQMNSLKPEDTAVYYCATGKIREDDYWGQGTQVTVSS | high polyreactivity
17 | QVQLVESGGGLVQAGGSLPLSCAASGRTFDVYPMGWYRQAPGKERELVAAINGGGSTYYADSVKGRFTISRDNAKNTVYLQINSLKPEDTALYYCAAKFRAGRSSYYWGQGTQVTVSS | high polyreactivity
